# Experimental data published in publication PMC7666189.
# B1: IbICS (Ipomoea batatas) (protein)
# chain: CYSAVFGFGDSLTDAGNLIRLEPDGTVPHMYFPPYGETYFDKPTGRCSDGRLIVDLIAQHYGLPLPPPSIPASLEGDKNRLRAGVNFAVVGSRALDAQFYEQRDIFDTVTNVSMTDQLNWFKELLPSLCSSPHDCKELLDGSLFVLGEFGGNDYTHSLLSGKGINVIRPFIPIVTRAIAQAVHELVELGARTVMIPSVLPLGCAASYLTYYPSPNPDDYDELGCLIWVNEMASYHNQLLQQQLAHVRELHPYANIVFADIYNAAMEVYQGPDTYGFSGGALRACCGGGGPYNFNTSAQCGNEGATACDNPSSYVNWDGYHLTEAAYQCITTGLLEGPYTYPRMKNLCRFDSRKTSRVAQI
# Substrate: O=C(/C=C/c1ccc(O)c(O)c1)O[C@@H]1C[C@](O)(C(=O)O)C[C@@H](O)[C@H]1O
# Experiment: purified protein
# Settings: 5-CQA as sole substrate (acyl donor and acceptor), 0-30 mM, enzyme from N. benthamiana, optimum pH 6.3 and 39.9 °C, pH and temperature of the Km assay not given
protein,measurement,value
B1,Km,3.5 mM
